In the supplement of paper PMC12042874:
± gives the uncertainty stated by the source.

Test: amyloid nucleation score (Sup35N fusion, yeast selection) (log enrichment); library NNK2; higher = more nucleation; inactive = no reads after selection
Outline: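 Growth for 7 days at 30°C on medium lacking adenine and uracil followed a 24-hour induction with 100 μM copper sulfate of psi-negative yeast expressing peptides of 20 random codons fused to Sup35N. Input and output plasmid inserts were sequenced with Illumina, and sequences with under 100 input reads were excluded. Nucleation score is the DiMSum log enrichment of output over input reads, centred on the mode score of non-aggregating sequences.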

| Substance | amyloid nucleation score |
| --- | --- |
| ISTTFV | 0.192 ± 0.79 |
| ISWAVKMHDIPV | 0.97 ± 0.58 |
| ISYTVDQRRFTSLVRCLYDH | 0.322 ± 0.57 |
| ITEYSYWSGIPSSMVSPIKH | -0.459 ± 0.28 |
| ITIQKIVEYISLNPEDT | 5.878 ± 0.055 |
| ITISII | 0.044 ± 1.1 |
| ITLASDFACLFGVIDYSWIV | 0.143 ± 0.49 |
| ITLGLQLCGFNCMTGLVRWS | -0.079 ± 0.76 |
| ITTSSSWCATILSPQFFKDV | -0.569 ± 0.44 |
| ITWNIVGGHFS | -0.412 ± 1.1 |
| IVDRAFDRAFRCGTGFGTDI | inactive |
| IVILTC | 0.464 ± 0.26 |
| IVLCWLEGG | 0.516 ± 0.31 |
| IVLFVKVDLLIDLISPL | 0.049 ± 0.56 |
| IVLLAVI | 0.539 ± 0.81 |
| IVLLINRYMILMGEPNHA | 0.17 ± 0.35 |
| IVLLPWSCEM | 1.26 ± 0.19 |
| IVNCCSYLYTRIHNVGPAGN | 6.383 ± 0.063 |
| IVNSKFKHAGVHPFDSL | -0.125 ± 0.79 |
| IVTTKWGNSHVSSVRIKARL | 5.42 ± 0.084 |
| IWILELFKY | 4.07 ± 0.12 |
| IWMRVVC | 0.337 ± 0.8 |
| IWQMLVMMKAWKMCPTLVRY | 1.09 ± 0.41 |
| IWQNVDCCPSWRLCVANHFM | 6.778 ± 0.054 |
| IWRFRGRRNRAWKF | -0.333 ± 0.62 |

| Substance | amyloid nucleation score |
| --- | --- |
| IWSCRGQLGSSFTPSGNCTG | 1.05 ± 0.37 |
| IYAQAFFVYHTLFWGGGDQW | 0.495 ± 0.16 |
| IYFGMDASKIGLLYVVGYSG | 0.067 ± 0.63 |
| IYFYCGRCVSVFVHSFGMGL | 4.21 ± 0.05 |
| IYFYKSGESFRAYPFAPGQW | -1.37 ± 0.75 |
| IYGLCERTFEA | 0.977 ± 0.14 |
| IYIMVTVF | 0.086 ± 0.33 |
| IYINYHREA | 3.54 ± 0.052 |
| IYKGTASIISCRWGWSVRHW | -0.573 ± 0.79 |
| IYRSVTRKSERMCTVVGQVV | -0.279 ± 0.48 |
| IYRTYYGINACLINLCMFDN | 7.55 ± 0.078 |
| IYRWPFVHPYMPLTRVAPDS | inactive |
| IYSISVLHCKGDLVYS | inactive |
| IYTNSISACDDVVGKNRVFA | -1.3 ± 1.1 |
| IYWMIIFWGFE | -0.089 ± 1.1 |
| IYYACL | 6.401 ± 0.054 |
| IYYGGYVNRLNREAFRGCKL | -1.49 ± 0.49 |
| KAAVMRHMSCCCYYHP | 0.845 ± 0.66 |
| KAIGCAIKTFRYIYWIIWLL | inactive |
| KALQNSDGVGTRNLQTRHGY | 1.75 ± 0.29 |
| KARWLIFDDVFCCCKFGGWW | 9.018 ± 0.053 |
| KAYPFYTLHVGGRDRVIPDW | inactive |
| KCCILMLKA | 0.745 ± 0.49 |
| KCKRLVSKNIRL | -0.342 ± 1 |
| KCLFES | 0.144 ± 0.77 |

| Substance | amyloid nucleation score |
| --- | --- |
| KCSTVYASGFWLPWTVVPGR | 0.418 ± 0.26 |
| KDGSPYKYLA | -0.554 ± 0.63 |
| KDLEFSISLMKVPNIWWHYR | 1.04 ± 0.17 |
| KDLPTSYIYMFDY | -1.2 ± 0.78 |
| KDNYNLNTGSSTISGHRWFA | inactive |
| KDSITAWCFVVLSVMTRVEY | -0.733 ± 1.1 |
| KDYSGGIRHPVVPSGMISYL | -1.44 ± 1.1 |
| KECVHHDHFYG | inactive |
| KEVCEKTMFMCSWVK | -0.809 ± 1.1 |
| KFASVYWLGLFPLLMPTVVS | 0.89 ± 0.43 |
| KFCVRVYNYIVDRITSLMKT | 3.22 ± 0.067 |
| KFILCCLFPTYGREFCTSGL | 8.921 ± 0.068 |
| KFKDHVGLYKPMGSRKFLDW | -0.28 ± 0.28 |
| KFLLGSVGTLQSNPTLFHLR | 0.095 ± 0.33 |
| KFMHRWPVYMVSTGLSLIVW | -0.458 ± 0.41 |
| KFNILPKLWMDICMIYLAVY | -1.33 ± 0.49 |
| KFSGRYWTGIEGVRISVCLH | -0.778 ± 0.56 |
| KFSHQVEILPSGTSIGSCER | -0.111 ± 0.63 |
| KFSKGSPGWWHQGSLCMVAM | 1.51 ± 0.58 |
| KFSLDF | -0.837 ± 0.53 |
| KFTSCAVNNDIMLLLVRVGF | -1.61 ± 0.75 |
| KFWDSDVGVGGHHV | inactive |
| KFWYYIFCGLCMCYDFSKRR | 6.42 ± 0.084 |
| KGAFANL | -1.63 ± 0.55 |
| KGCVDHVFIYGIN | -1.44 ± 0.41 |

| Substance | amyloid nucleation score |
| --- | --- |
| KGGNIHSRVTYR | -0.669 ± 0.37 |
| KGLLCTHESMGVYRDSWPCY | -0.067 ± 0.49 |
| KGQVLWTLGCMSIFVSMTNM | 5.58 ± 0.078 |
| KGSDSYLFIERWCLKMNISL | inactive |
| KGTYNDIMLRYACCMAGVKR | -0.053 ± 0.49 |
| KGWWGVIRDYREWFTGSRWG | 0.594 ± 0.47 |
| KGYGIHFCFRCMDSRCGVS | 0.97 ± 0.28 |
| KHCQLLSVSAECDRPGLWKE | 0.75 ± 0.17 |
| KHLMMDCAKRMQLRNIRDES | 0.216 ± 0.2 |
| KITMDPGLVRIHNFGQTSLV | 0.408 ± 0.62 |
| KIVWCLVYNRDYYLQYRTIS | -0.625 ± 0.27 |
| KIYSTSYDNNTSYISCVWSH | 6.708 ± 0.029 |
| KKAIFWWFWDHDSCL | inactive |
| KKNSAVHVYF | -1.01 ± 1.1 |
| KKSHFLKRYNTAYVGRHLVH | -0.07 ± 0.53 |
| KKVFLTFLEFVFNAISGWWV | -0.67 ± 0.79 |
| KLFRQQCDS | 0.247 ± 0.8 |
| KLGLVKMSPYIMFTHVCDGW | -0.217 ± 0.23 |
| KLIYLGGSSEFGTHFSA | -0.429 ± 0.61 |
| KLLAVVLFGDGLAFNN | 3.24 ± 0.064 |
| KLPFELKSDDFTCFNWANSR | -0.097 ± 1.1 |
| KLQLVTLW | 3.66 ± 0.072 |
| KLRGIPYRF | inactive |
| KLRIVMMNRIFTSNL | 5.16 ± 0.1 |
| KLVCRMTGCFWVVFIACPYY | 0.175 ± 0.35 |

| Substance | amyloid nucleation score |
| --- | --- |
| KLVLSNSALFRRTFAINPV | 0.626 ± 0.8 |
| KLYLVWPTCGDGCSFGLRAT | -0.194 ± 0.24 |
| KMPWMTCSHVTFTRIHSKIS | -0.57 ± 0.48 |
| KMSELWFVIKPWFWIMGLEK | -0.403 ± 1.1 |
| KNDLPRKKVL | 0.128 ± 0.4 |
| KNIVVTSPVLMNST | -0.179 ± 0.63 |
| KNKWRSMV | 0.953 ± 0.18 |
| KNYVYWDLIHRFCLSTMR | 1.62 ± 0.52 |
| KPWTYDMVCSRFTSMWFCDY | 0.644 ± 0.38 |
| KRDFPISATSRLCVAFFFIY | -0.975 ± 0.38 |
| KRDLGFRVVLWYLW | -0.942 ± 0.6 |
| KRGRDV | -0.292 ± 0.49 |
| KRKLSKYFLRLKLKCFWVM | -0.753 ± 0.48 |
| KRLVEAVKFWWQVRNGLKVR | 0.518 ± 0.29 |
| KRQSRAVMVS | 0.037 ± 0.63 |
| KRSKSR | inactive |
| KRSSGRVFHPRMSRW | 0.641 ± 0.4 |
| KRYLTGSEVIVGWCC | 0.329 ± 0.38 |
| KSCFWLRDI | -0.457 ± 0.28 |
| KSCGNGHISDVIYLRGMLGV | -0.538 ± 0.55 |
| KSESLLPLNWAHARALIHRA | 1.1 ± 0.36 |
| KSHHGWSTIRCNRWYIS | inactive |
| KSPCIVQTTILYNYMAVVIS | 3.83 ± 0.12 |
| KSPNHSDRVQWMKYTFWYTL | -0.003 ± 1.1 |
| KTFFVYIRSNYCV | -1.24 ± 0.62 |

| Substance | amyloid nucleation score |
| --- | --- |
| KTGVGTYIPQWDCNGHEMVS | 0.423 ± 0.35 |
| KTISNYVAGN | inactive |
| KTMANI | -0.403 ± 0.37 |
| KTQKLLGRAWRNYGYGCCVR | -0.487 ± 1.1 |
| KTSWFGYSWNDHHSIRHQCS | 0.84 ± 0.43 |
| KTSWVVYDGFRARDARSWRS | -0.245 ± 0.48 |
| KTYDGGFKRNRDEVGPKPGE | -0.326 ± 1 |
| KVEALDVTRGIVPGKSLAVR | 0.249 ± 0.55 |
| KVHNLMGESGIKLYYVRFAH | inactive |
| KVIMVLFRFDMSIWGWQTDI | -0.628 ± 0.76 |
| KVLRLIRY | 1.25 ± 0.48 |
| KVMNNIL | -0.093 ± 0.36 |
| KVNKCIIRQLDLNMPLASRW | 0.584 ± 0.46 |
| KVQNWMLNTHGFYSLRGFDQ | -0.857 ± 0.41 |
| KVRLGTLTYICYANSNRLCP | 2.37 ± 0.12 |
| KVVITQSRVGTLESVKVFYV | 1.77 ± 0.19 |
| KVYINHGFGNFEVCSRWVFE | -0.055 ± 1.1 |
| KWFGSRFYYLYKPPLFSHLA | inactive |
| KWIYQIFPVMALECKGVLH | 2.85 ± 0.15 |
| KWLTAHAAYLWSETEVRMVV | 0.673 ± 0.27 |
| KWNVFGDDGMREARLNLSGV | -0.69 ± 0.74 |
| KYERYLNRFSLLLRTAMVHR | -0.362 ± 0.29 |
| KYIYVYNSIGVP | -0.277 ± 1 |
| KYTGMKYRPTVCLGVEVQLK | 3.83 ± 0.062 |
| KYVVVYDSVYGFSVSGFSLW | 0.777 ± 0.19 |

| Substance | amyloid nucleation score |
| --- | --- |
| LACLVIFMTVSDMDVLSGLF | -0.39 ± 0.21 |
| LACVKMFSGVFV | 0.06 ± 0.65 |
| LADTLVSESKYKWLF | -0.032 ± 1.1 |
| LAFYSFIRYTRLSIEMVAIS | -0.741 ± 0.31 |
| LAGCSMSGVVEC | 1.13 ± 0.22 |
| LAGITWISSTVRDVSYMRRR | 2.72 ± 0.1 |
| LAKRGCVIVCFLTFHYTIRR | -0.348 ± 0.28 |
| LALSFIMMCPYR | 4.95 ± 0.079 |
| LALSRYFGL | -0.909 ± 0.54 |
| LANKAYYVCLV | 0.022 ± 0.62 |
| LANNSERMAAQDEVYSNCRM | -0.506 ± 0.24 |
| LAPCISNMSRLL | -1.25 ± 0.36 |
| LAQMQR | -0.169 ± 0.8 |
| LAQWLTRLYAK | 1.12 ± 0.4 |
| LASTALVLDP | 1.14 ± 0.31 |
| LAYCGYIHDLFGGILIKLDG | -0.081 ± 1.1 |
| LCEALRFVIYCKLTSFVPFN | -0.632 ± 0.61 |
| LCFYPVTTCKPIFRPLYVLP | 0.562 ± 0.45 |
| LCGAKRFMRVQAFEQNVYSR | 0.401 ± 0.37 |
| LCGSQFL | 0.705 ± 0.66 |
| LCKFFDTVVSMLGSVCSGNQ | 3.22 ± 0.1 |
| LCKVCSMITVGSGSGSVYSQ | inactive |
